Where “and” joins values, the source holds several entries; their conditions need not be identical. Equal entries are not always repeated. Where two headings read alike, the source gives them in different places.
T1: human OX40 expressed on cells (human, UniProt P43489 29-277)
T1 sequence: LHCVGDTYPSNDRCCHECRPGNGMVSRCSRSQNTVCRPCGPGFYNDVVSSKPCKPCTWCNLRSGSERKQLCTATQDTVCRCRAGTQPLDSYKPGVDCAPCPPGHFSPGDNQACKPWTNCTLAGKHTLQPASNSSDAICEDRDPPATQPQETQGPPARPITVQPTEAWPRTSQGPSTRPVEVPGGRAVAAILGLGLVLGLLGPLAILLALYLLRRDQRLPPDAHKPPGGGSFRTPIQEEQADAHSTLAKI

T2: recombinant soluble human OX40 ECD (residues 1-216) (human, UniProt P43489 29-216)
T2 construct: Purchased from Creative Biomart and further purified by gel filtration; also called recombinant extracellular domain of human OX40
T2 sequence: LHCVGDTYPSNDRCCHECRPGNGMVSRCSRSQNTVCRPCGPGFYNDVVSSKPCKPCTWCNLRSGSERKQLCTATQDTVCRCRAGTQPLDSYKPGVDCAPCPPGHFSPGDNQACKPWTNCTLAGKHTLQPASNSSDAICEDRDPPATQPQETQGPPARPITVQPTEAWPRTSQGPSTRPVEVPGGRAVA


Assays:
[1] = target: T1, human OX40 expressed on cells; test: cell-based or functional assay
[2] = target: T1, human OX40 expressed on cells; test: competition by flow cytometry on Jurkat-NF-κB-huOX40 cells; competitor: ALEXA FLUOR 647-labeled Hu3738 at 2 µg/mL
Protocol: Analysis was performed by flow cytometry.

[3] = target: T1, human OX40 expressed on cells; test: cell-based or functional assay; remark: listed apart in the source
[4] = target: T1, human OX40 expressed on cells; test: cell-based or functional assay; remark: listed apart in the source
[5] = target: T2, recombinant soluble human OX40 ECD …; test: SPR (Biacore T200, 25 °C), antibody captured by anti-Fc, OX40 ECD as analyte
Protocol: The binding kinetics of an anti-OX40 antibody to recombinant soluble OX40 ECD (extracellular domain) were determined by surface plasmon resonance-based measurements made on a Biacore T200 instrument (GE Healthcare) at 25° C. using an anti-Fc capture assay approach. Recombinant extracellular domains (ECDs) of human OX40 (residues 1-216) and rhesus macaque OX40 (residues 28-214) were purchased (Creative Biomart) and further purified by gel filtration using Superdex200 (GE Healthcare) in 10 mM 4-(2-hydroxyethyl)-1-piperazineethanesulfonic acid (HEPES), pH 7.4, 150 mM NaCl, 3 mM ethylenediaminetetraacetic acid (EDTA). Rhesus macaque (Macaca mulatta) OX40 is identical to cynomolgus monkey (Macaca fascicularis) OX40 (SEQ ID NO:2) at the amino acid level. Chip preparation and binding kinetic measurements were made in the assay buffer HBS-EP+(10 mM HEPES, pH 7.4, 150 mM NaCl, 3 mM EDTA, 0.05% Tween 20). For anti-Fc capture chip preparation, approximately 2000 Resonance Units (RU) of goat anti-human IgG Fc polyclonal antibody (Thermo Fisher Scientific Inc.), diluted to 25 μg/mL in 10 mM sodium acetate (pH 4.5), was directly immobilized across a CMS biosensor chip using a standard amine coupling kit according to manufacturer's instructions and procedures. Unreacted moieties on the biosensor surface were blocked with ethanolamine. For binding kinetics measurements each assay cycle consisted of the following steps: 1) capture of test anti-OX40 antibody on test surface only; 2) analyte injection (OX40 ECD or buffer only) over both reference and test surface, 240 μL at 80 μL/min, after which the dissociation was monitored for 900 seconds at 80 μL/min; 3) regeneration of capture surface by 10 mM Glycine-HCl, pH 1.5 injections over both reference and test surface. During the assay, all measurements were referenced against the capture surface alone (i.e., with no captured test antibody) and buffer-only injections were used for double referencing. OX40 injections ranged in concentration from 900 nM or 300 nM to 11.11 nM in a randomized 9- or 3-fold dilution series, respectively. Data were processed and fitted globally to a 1:1 binding model using Biacore T200 Evaluation software to determine the binding kinetic rate constants, kₐ (M⁻¹s⁻¹) and kd (s¹), and the equilibrium dissociation constant KD (M).

[6] = target: T1, human OX40 expressed on cells; test: flow cytometry on Jurkat NF-κB reporter cells expressing human OX40
Protocol: A Jurkat NF-κB reporter cell line expressing human OX40 protein was cultured in DMEM containing 10% FBS and penicillin/streptomycin (pen/strep). For the binding assay, each cell line was resuspended at 5 million cells per mL. 50 μL (250,000 cells)/well were transferred to each well of a 500 μL polypropylene 96-well plate (Nunc). A 2× stock of test anti-OX40 antibody or isotype control mAb was prepared in a separate dilution plate at 666, 333, 111, 37.03, 12.34, 4.11, 0.457, 0.152, 0.0508, 0.0169, 0.00564 nM in culture media. Each antibody (50 μL/well) was transferred into respective wells of the assay plate. Cells were incubated with the test anti-OX40 antibody or isotype control antibodies for 30 minutes at 4° C. and washed twice with 250 μL/well of PBS by centrifuging at 800 rpm for 3 minutes. Bound antibody was detected with Cy5-Donkey anti-human IgG (H+L) (Jackson ImmunoResearch) diluted to 2 μg/mL (50 μL/well) in PBS for 30 minutes at 4° C. Cells were washed once with 250 μL/well of PBS, resuspended in PBS containing 1% Formaldehyde and analyzed on a dual laser FACSCalibur (Becton Dickinson).

[7] = target: T1, human OX40 expressed on cells; test: flow cytometry competition on human OX40-expressing Jurkat cells; OX40L titrated against 0.2 µg/mL Hu3738 (competitor)

EC50 With Cross-linker (nM), NF-κB signaling [4] | EC50 Without Cross-linker (nM), NF-κB signaling [4] | Kd [5] | koff [5] | Molecule | also measured
– | – | – | – | Isotype control antibody | EC50 With Cross-linker (nM), NF-κB signaling [1]: > 100 µg/mL; EC50 Without Cross-linker (nM), NF-κB signaling [1]: > 100 µg/mL
– | – | – | – | 1A7 (antibody, human IgG1, V domains shown, 2015/0307617; also called literature anti-OX40 antibody 1A7) VH: EVQLQQSGPELVKPGASVKISCKASGYTFTDSYMSWVKQSHGKTLEWIGDMYPDNGDSSYNQKFREKVTLTVDKSSTTAYMEFRSLTSEDSAVYYCVLAPRWYFSVWGTGTTVTVSS VL: DIQMTQTTSSLSASLGDRVTISCRASQDISNYLNWYQQKPDGTVKLLIYYTSRLRSGVPSRFSGSGSGKDYFLTISNLEQEDVAAYFCQQGHTLPPTFGGGTKLEIK | IC50 (read off the curve) [2]: ~0.6 µg/mL; EC50 With Cross-linker (nM), NF-κB signaling [3]: 0.066 nM; EC50 Without Cross-linker (nM), NF-κB signaling [3]: > 100 µg/mL
0.63 nM | > 100 µg/mL | – | – | 106-222 (antibody, human IgG1, V domains shown, 2013/0280275) VH: QVQLVQSGSELKKPGASVKVSCKASGYTFTDYSMHWVRQAPGQGLKWMGWINTETGEPTYADDFKGRFVFSLDTSVSTAYLQISSLKAEDTAVYYCANPYYDYVSYYAMDYWGQGTTVTVSS VL: DIQMTQSPSSLSASVGDRVTITCKASQDVSTAVAWYQQKPGKAPKLLIYSASYLYTGVPSRFSGSGSGTDFTFTISSLQPEDIATYYCQQHYSTPRTFGQGTKLEIK | IC50 (read off the curve) [2]: ~1 µg/mL
– | – | 360 nM | 0.016 s⁻¹ | Hu3739 (antibody, V domains shown, Humanized antibody; also called Hu3739 VH.1b / Hu3739 VL.1b) VH: EVQLVQSGAEVKKPGSSVKVSCKASGFNIKDTYMHWVRQAPGQGLEWIGRIDPANGNTKYDPKFQGRATITADTSTNTAYMELSSLRSEDTAVYYCARGGPAWFVYWGQGTLVTVSS VL: DIQMTQSPSSLSASVGDRVTITCRASQDISNYLNWYQQKPGKAPKLLIYYTSRLRSGLPSRFSGSGSGTDYTLTISSLQPEDFATYYCQQGNTLPWTFGGGTKVEIKR | –
– | – | 3000 nM | 0.31 s⁻¹ | Hu3741 (antibody, V domains shown, Humanized antibody; also called Hu3741 VH.2b / Hu3741 VL.1c) VH: EVQLVESGGGLVQPGGSLRLSCAVSGFSLTSYGVHWVRQAPGKGLEWLGVIWSGGSTDYNAAFISRLTISKDNSKSTVYLQMNSLRAEDTAVYYCAREEFDYWGQGTTVTVSS VL: DIQMTQSPSSLSASVGDRVTITCRASQDISNYLNWFQQKPGKAPKLLIYYTSRLHSGVPSRFSGSGSGTDYTLTISSLQPEDFATYYCQQGYTLPPTFGGGTKVEIKR | –
0.5 nM | > 100 µg/mL | 9.1 nM | 0.11 s⁻¹ | 18D8 (antibody, human IgG1, V domains shown, also called literature anti-OX40 antibody 18D8) VH: EVQLVESGGGLVQPGRLSRLSCAASGFTFDDYAMHWVRQAPGKGLEWVSGISWNSGSIGYADSVKGRFTISRENAKNSLYLQMNSLRAEDTALYYCAKDQSTADYYFYYGMDVWGQGTTVTVSS VL: EIVVTQSPATLSLSPGERATLSCRASQSVSSYLAWYQQKPGQAPRLLIYDASNRATGIPARFSGSGSGTDFTLTISSLEPEDFAVYYCQQRSNWPTFGQGTKVEIK | EC50 [6]: 0.258 µg/mL
– | – | – | – | soluble human OX40 ligand (OX40L) (ligand, also called CD252; TNFSF4) QVSHRYPRIQSIKVQFTEYKKEKGFILTSQKEDEIMKVQNNSVIINCDGFYLISLKGYFSQEVNISLHYQKDEEPLFQLKKVRSVNSLMVASLTYKDKVYLNVTTDNTSLDDFHVNGGELILIHQNPGEFCVL | IC50 [7]: 0.067 nM and 0.01 µg/mL
0.34 nM | > 100 µg/mL | – | – | 119-122 (antibody, human IgG1, V domains shown) VH: EVQLVESGGGLVQPGGSLRLSCAASEYEFPSHDMSWVRQAPGKGLELVAAINSDGGSTYYPDTMERRFTISRDNAKNSLYLQMNSLRAEDTAVYYCARHYDDYYAWFAYWGQGTMVTVSS VL: EIVLTQSPATLSLSPGERATLSCRASKSVSTSGYSYMHWYQQKPGQAPRLLIYLASNLESGVPARFSGSGSGTDFTLTISSLEPEDFAVYYCQHSRELPLTFGGGTKVEIK | –

From patent US20210017289A1 (AbbVie / Abbott, published 2021)
